Measurements reported in patent US20040071656A1, “Modulation of heat-shock-protein-based immunotherapies” (priority 2001, published 2004).

Columns and labels:
human CD40 [1] = biological target: T1, human CD40 (Homo sapiens, UniProt P25942); test: Uptake of peptide C-FITC in HEK293T-CD40 cells, confocal microscopy; assay type: cell-based; settings: 0.5 μM protein, 5 μM peptide C-FITC, ADP, 30 min 0° C. then 15 min 37° C.
T1 construct: CD40 full-length cDNA was cloned by PCR; expressed in transfected cells
Procedure: For experiments to study uptake of Hsp70/peptide C-FITC complex, HEK293T-CD40 and HEK293T-MCAT cells were seeded on collagen-coated cover slips 24 h prior to the experiment. For complex formation Hsp70, its N-terminal domain (N70) or its C-terminal domain (C70) were preincubated with a 10-fold molar excess of peptide C-FITC for 30 min at 37° C., as described above for the biotinylated proteins. HEK293T-CD40 and HEK293T-MCAT were incubated with 0.5 μM of Hsp70, N70 or C70, preincubated with 2 mM ADP and 5 μM peptide C-FITC, or 5 μM peptide C-FITC alone for 30 min on ice. Thereafter the cells were washed three times with medium, incubated for 15 min at 37° C., and fixed, embedded in Fluoromount-G and analyzed by confocal microscopy (LSM 510, Zeiss).
Next, the binding of Hsp70-peptide complex to CD40 was studied, which results in the uptake of peptide. To this end, HEK293T-CD40 cells and HE293T-MCAT cells (not expressing CD40) were incubated with a fluorescent (FITC) derivative of peptide C for 30 min at 0° C. in the presence of ADP, with or without Hsp70 or its two domains. After removal of excess material, the cells were incubated at 37° C. for 15 min, fixed and then analyzed by fluorescence microscopy. […] (FIG. 6B, panel 1). […] Neither did HEK293T-MCAT control cells give rise to a signal under any of the conditions tested (not shown). We conclude that the specific interaction of CD40 with Hsp70-peptide complex mediates the uptake of peptide.
Details for FIG. 6. Binding of Hsp70 complex to CD40-expressing HEK293T cells induces signaling via p38 and causes peptide uptake. A. HEK293T-cells, stably transfected with cDNA encoding human CD40 or the unrelated membrane protein murine cationic amino acid transporter (MCAT) were incubated for 20 min at 37° C. with CD40L or with Hsp70, C70, N70, bacterial DnaK either in the presence of ADP or AMPPNP, or buffer alone. Thereafter cells were washed, solubilized in SDS-sample buffer, and analyzed by immunoblotting with antibodies directed against phosphorylated (active) p38. Blots were also developed with an antibody against tubulin in order to control for equal loading. B. Cells were incubated at 0° C. for 30 min with recombinant human Hsp70, N70, or C70, all in the presence FITC-labeled peptide, or with the FITC-labeled peptide alone. Thereafter cells were washed, incubated for 15 min at 37° C., and processed for fluorescence microscopy. Upper left panel: Hsp70, upper right panel: FITC-labeled peptide alone, lower left panel: C70, lower right panel: N70. Only cells stably transfected with CD40 are shown. Cell boundaries are emphasized with broken lines.

human CD40 [2] = biological target: T1, human CD40; test: P38 kinase assay in HEK293T-CD40 cells; assay type: cell-based; settings: for phosphorylated p38 in HEK293T-CD40 cells: 100 nM, 20 min at 37° C., ADP and peptide C
Procedure: P38 Kinase Assay. Twenty-four h prior to P38 kinase assays HEK293T-CD40 and HEK293T-MCAT cells were seeded into a 24-well plate coated with collagen and incubated with 100 nM CD40L (Alexis), HSP70, N70-domain, C70-domain, or DnaK for 20 min at 37° C. DnaK, Hsp70, N70 and C70 were preincubated with either 2 mM ADP and 30 μM peptide C or 40 μM AMPPNP (Sigma). Upon stimulation cells were washed twice with ice-cold PBS, and lysed in SDS-sample buffer. Equal amounts of protein were analyzed by immunoblotting with antibodies directed against phosphorylated P38 (Promega), and with a monoclonal anti-tubulin antibody (J. Wehland, Braunschweig, Germany).
Binding of Hsp70-peptide complex to CD40 results in intracellular signaling and peptide uptake. Binding of CD40 ligand to CD40 induces signal transduction via phosphorylation of p38, a component of the signal cascade between activated CD40 and NF-kappaB, which eventually results in the release of TNF-alpha and subsequent secretion of interferon-gamma (Pullen et al., 1999). Binding of the C-terminal domain of DnaK to CD40 was reported to have a similar effect (Wang et al., 2001, idem). We therefore investigated whether binding of human Hsp70-peptide complex to CD40 also stimulates this signaling pathway. These experiments were carried out in HEK293T cells stably transfected with human CD40 cDNA. After incubation with either Hsp70-peptide complex, recombinant Hsp70 domains, or DnaK, in the presence of ADP or the non-hydrolysable ATP analogue AMPPNP, cells were lysed, and lysates analyzed by immunoblotting with an antibody directed against active (i.e., phosphorylated) p38.
Details for FIG. 6. Binding of Hsp70 complex to CD40-expressing HEK293T cells induces signaling via p38 and causes peptide uptake. […] Thereafter cells were washed, solubilized in SDS-sample buffer, and analyzed by immunoblotting with antibodies directed against phosphorylated (active) p38. […] Thereafter cells were washed, incubated for 15 min at 37° C., and processed for fluorescence microscopy. […]

T1 sequence (P25942 21-277): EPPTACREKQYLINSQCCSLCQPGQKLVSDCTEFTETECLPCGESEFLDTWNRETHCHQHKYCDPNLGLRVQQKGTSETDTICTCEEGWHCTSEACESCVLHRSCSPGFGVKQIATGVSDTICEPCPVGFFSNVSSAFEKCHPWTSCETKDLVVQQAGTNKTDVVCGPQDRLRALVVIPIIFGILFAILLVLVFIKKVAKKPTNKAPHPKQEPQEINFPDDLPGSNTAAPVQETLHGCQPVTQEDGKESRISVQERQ

Substance | uptake of fluorescent (FITC) peptide C into HEK293T-CD40 cells (human CD40 [1]) | phosphorylated p38 in HEK293T-CD40 cells (human CD40 [2]) | activation of p38 by Hsp70, nucleotide dependence (human CD40 [2]; ADP versus AMPPNP, compared with same molar concentration of CD40 ligand)
N70: Recombinant N-terminal ATPase domain of human Hsp70, residues 5-381 (SEQ ID NO: 1) | did not result in a peptide signal above background | caused an increase in phosphorylated p38 to an extent comparable to that observed with DnaK | 
Hsp70: Recombinant human heat shock protein 70, expressed and purified as His-tagged protein | fluorescent peptide was observed in punctuate intracellular structures only in cells expressing CD40 | caused an increase in phosphorylated p38 to an extent comparable to that observed with DnaK | significant, and depended on the presence of ADP
